Test results: paper PMC1894825, “Transcriptional Regulation of Multi-Drug Tolerance and Antibiotic-Induced Responses by the Histone-Like Protein Lsr2 in M. tuberculosis” (PLoS Pathogens, 2007)

Biological target: the molecule itself
Experiment: cross-linking

B1: recombinant Lsr2 (M. tuberculosis, Rv3597c) (natural protein)
chain: not shown
notes: also called rLsr2; not shown: His6, N-terminal, kept
binding result: binds
